Data taken from article PMC10666094.

System: CNBP full-length
Assay: MST
Details: MST Buffer (composition, salt and pH not given); RED-Tris-NTA labeling 30 min at room temperature; RNA in 16 two-fold dilutions; 60% LED, high MST power …

Q: Which Kd does the source give for SARS-CoV-2 genome RNA here?
A: 29.7 ng/µL
